Biological target: T1, ZmMYB84 (MBP fusion) (Zea mays, UniProt B4FQD3 1-356)
T1 sequence: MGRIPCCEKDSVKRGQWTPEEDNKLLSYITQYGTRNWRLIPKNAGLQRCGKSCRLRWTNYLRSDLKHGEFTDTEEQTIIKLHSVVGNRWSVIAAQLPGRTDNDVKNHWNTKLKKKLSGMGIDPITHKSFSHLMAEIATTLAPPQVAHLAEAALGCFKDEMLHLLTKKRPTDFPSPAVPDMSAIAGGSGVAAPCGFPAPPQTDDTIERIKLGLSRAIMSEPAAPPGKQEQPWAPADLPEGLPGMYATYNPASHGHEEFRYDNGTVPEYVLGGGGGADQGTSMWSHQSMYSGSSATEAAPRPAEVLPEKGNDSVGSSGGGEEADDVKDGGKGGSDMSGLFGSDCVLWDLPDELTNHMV
Test: EMSA; EMSA conditions not stated (as in Hou et al., 2023)
Conditions: protein: recombinant; tags: MBP (ZmMYB84 fused to the C-terminus of MBP; vector pMCSG7); label: biotin; 5' overhang 1 nt on each strand (so in the source)

B1: ZmTKPR1-1bio promoter probe (dsDNA)
DNA 1: TAGGAAGGAAGAAGGTTCCTGCAATGCATGTAAGGTTGGTAATTCATGCCTT
DNA 2: AAAGGCATGAATTACCAACCTTACATGCATTGCAGGAACCTTCTTCCTTCCT
B1: binds.

B2: ZmTKPR1-2bio promoter probe (dsDNA)
DNA 1: ATTGCAAATCTACCCCCAACCAACCCAGCTTTGTATCTG
DNA 2: GCAGATACAAAGCTGGGTTGGTTGGGGGTAGATTTGCAA
B2: binds.
